This is an account of results in patent US20030157712A1, “Methods for determining cell responses through EphB receptors” (priority 1997, published 2003).

The target in the assay is endogenous EphB1 receptor of P19 cells (teratocarcinoma-derived, pluripotent murine cells) (murine) (UniProt Q8CBF3). The assay is described as follows: cell-based or functional assay.
Chain of endogenous EphB1 receptor of P19 cells (teratocarcinoma-derived, pluripotent murine cells) (murine) (Q8CBF3 18-984): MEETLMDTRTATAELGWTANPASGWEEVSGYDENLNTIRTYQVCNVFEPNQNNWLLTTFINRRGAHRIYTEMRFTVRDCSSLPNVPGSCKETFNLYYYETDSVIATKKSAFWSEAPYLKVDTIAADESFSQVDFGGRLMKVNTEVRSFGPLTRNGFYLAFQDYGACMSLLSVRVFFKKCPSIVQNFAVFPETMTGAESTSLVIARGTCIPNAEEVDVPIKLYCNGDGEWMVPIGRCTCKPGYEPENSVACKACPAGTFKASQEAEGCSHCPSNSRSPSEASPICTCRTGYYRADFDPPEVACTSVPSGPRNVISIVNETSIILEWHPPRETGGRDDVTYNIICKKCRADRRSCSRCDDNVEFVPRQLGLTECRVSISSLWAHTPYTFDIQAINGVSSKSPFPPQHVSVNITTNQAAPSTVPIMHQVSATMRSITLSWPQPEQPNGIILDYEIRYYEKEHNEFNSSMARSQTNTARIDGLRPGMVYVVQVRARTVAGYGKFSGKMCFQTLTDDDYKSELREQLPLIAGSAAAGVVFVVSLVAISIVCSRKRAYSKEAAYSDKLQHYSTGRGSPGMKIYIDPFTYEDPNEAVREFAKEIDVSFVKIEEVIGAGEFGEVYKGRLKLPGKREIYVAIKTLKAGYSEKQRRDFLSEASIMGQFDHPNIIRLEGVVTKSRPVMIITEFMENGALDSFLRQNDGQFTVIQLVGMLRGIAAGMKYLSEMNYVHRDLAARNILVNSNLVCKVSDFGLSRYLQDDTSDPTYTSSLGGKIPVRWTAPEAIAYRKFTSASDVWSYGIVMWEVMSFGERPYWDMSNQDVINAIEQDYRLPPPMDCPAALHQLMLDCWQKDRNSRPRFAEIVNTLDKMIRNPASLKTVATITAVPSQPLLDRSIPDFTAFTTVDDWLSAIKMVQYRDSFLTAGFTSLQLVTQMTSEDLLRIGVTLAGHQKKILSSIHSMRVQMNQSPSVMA

For “preclustered multimeric ephrin-B1/Fc (ephrin-B1/Fc + anti-Fc) (from UniProt P98172 28-237; P01857 99-330) (Fc fusion)”, the % attached P19 cells in wells preadsorbed with ligand and fibronectin stood at 60%.
